Assay results reported in PMC4081050.

Substrate: O=C(O)[C@@H](O)[C@H](O)[C@H](O)[C@@H](O)C(=O)O
Assay: purified protein
Conditions: dehydration, 20 mM HEPES pH 7.9, 5 mM MgCl2, 1 μM enzyme

B1: A9CG74 (GalrD-III) (Agrobacterium fabrum str. C58) (protein)
chain: MKIDRMRVFVTRDKDRPRVIVALDTDDGMTGWGECYNHGPDLALPPVLDYLYNFLAGQDPTRVEFLYNLMLQQNRFPPGALGLSAISALDHCLWDLAAKAVGVPVYKLLGGEVRNRIKVYAGVYTAPDAPAARDEFDRLNEGWGFSAFKLSPWRVDIHAHRWGEVVRSSAEYFRTLRETVRADYDIAFDAHAKIFEPSAARQLGNALAPYDPLFYEEPLRPENIEMYGDLKQGLNCTLATGESLYNRNEFLRLLQVKGADIIQPDICVVGGISEMRRIATLAEAHFVSIAPHNPMGPLATAVNVHFCAVQQNFRILEYRLPKGQVYAYGGNDLVKEEDVTRYVVDPYLPRDGYLELRPDRPGWGVEMDEKAMQEDGYVHWQRRVPKRPDGSYAFA
- Km: 80 ± 30 µM
- kcat: 0.12 ± 0.05 s⁻¹
- kcat/Km: 1500 M⁻¹ s⁻¹
